Results reported in article PMC9482650, “Quantitative fragmentomics allow affinity mapping of interactomes” (Nature Communications, 2022).

Columns and labels:
Assay in all cases: holdup assay
Set-up in all cases: key: below the threshold = too weak to quantify, mostly under pKd 3.1 to 4
[1] = target: T1, HTRA4, P83105
T1 sequence (P83105 378-476, limits assumed, looked up): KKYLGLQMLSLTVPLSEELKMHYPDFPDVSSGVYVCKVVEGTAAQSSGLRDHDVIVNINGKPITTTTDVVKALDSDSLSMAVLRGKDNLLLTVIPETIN

[2] = target: T2, MPP6, Q9NZW5
T2 sequence (Q9NZW5 125-219, limits assumed, looked up): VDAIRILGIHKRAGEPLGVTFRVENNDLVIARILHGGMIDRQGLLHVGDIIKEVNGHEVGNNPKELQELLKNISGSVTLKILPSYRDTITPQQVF

[3] = target: GRASP, Q7Z6J2
[4] = target: T3, GRIP1_7, Q9Y3R0
T3 sequence (Q9Y3R0 999-1096, limits assumed, looked up): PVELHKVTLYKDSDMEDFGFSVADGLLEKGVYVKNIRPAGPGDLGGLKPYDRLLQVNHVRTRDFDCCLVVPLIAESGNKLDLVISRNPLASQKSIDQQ

[5] = target: NOS1, P29475
[6] = target: T4, TJP3_3, O95049
T4 sequence (O95049 375-456, limits assumed, looked up): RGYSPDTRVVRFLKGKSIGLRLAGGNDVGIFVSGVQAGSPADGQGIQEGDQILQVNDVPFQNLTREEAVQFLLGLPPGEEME

[7] = target: Inadl_9, Q8NI35
[8] = target: T5, DLG3_3, Q92796
T5 sequence (Q92796 374-475, limits assumed, looked up): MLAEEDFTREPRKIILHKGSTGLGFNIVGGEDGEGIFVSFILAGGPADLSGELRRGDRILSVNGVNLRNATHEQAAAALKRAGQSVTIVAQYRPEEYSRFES

[9] = target: Inadl_2, Q8NI35
[10] = target: NHERF4_1, Q86UT5-2
[11] = target: T6, RAPGEF6, Q8TEU7
T6 sequence (Q8TEU7 525-625, limits assumed, looked up): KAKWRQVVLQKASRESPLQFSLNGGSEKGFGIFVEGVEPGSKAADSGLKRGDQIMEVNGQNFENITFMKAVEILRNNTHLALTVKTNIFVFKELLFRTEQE

[12] = target: NHERF2_2, Q15599
[13] = target: PICK1, Q9NRD5
[14] = target: NHERF4_4, Q86UT5
[15] = target: TJP2_1, Q9UDY2
[16] = target: T7, SNTB1, Q13884
T7 sequence (Q13884 107-205, limits assumed, looked up): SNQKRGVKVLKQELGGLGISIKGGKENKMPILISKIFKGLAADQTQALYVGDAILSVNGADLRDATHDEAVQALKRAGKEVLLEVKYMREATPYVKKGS

[17] = target: T8, ARHGAP21, Q5T5U3
T8 sequence (Q5T5U3 45-169, limits assumed, looked up): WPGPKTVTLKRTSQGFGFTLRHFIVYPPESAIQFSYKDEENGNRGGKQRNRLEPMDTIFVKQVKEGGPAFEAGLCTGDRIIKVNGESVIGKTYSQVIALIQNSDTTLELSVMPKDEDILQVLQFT

[18] = target: T9, APBA1_2, Q02410
T9 sequence (Q02410 742-832, limits assumed, looked up): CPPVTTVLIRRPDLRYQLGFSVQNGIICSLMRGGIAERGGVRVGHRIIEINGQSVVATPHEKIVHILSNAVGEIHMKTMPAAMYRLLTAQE

[19] = target: T10, LIN7A, O14910
T10 sequence (O14910 103-200, limits assumed, looked up): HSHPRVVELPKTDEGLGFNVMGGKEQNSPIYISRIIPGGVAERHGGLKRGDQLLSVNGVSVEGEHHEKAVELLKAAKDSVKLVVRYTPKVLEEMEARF

[20] = target: GRID2IP_1, A4D2P6
[21] = target: T11, APBA1_1, Q02410
T11 sequence (Q02410 651-752, limits assumed, looked up): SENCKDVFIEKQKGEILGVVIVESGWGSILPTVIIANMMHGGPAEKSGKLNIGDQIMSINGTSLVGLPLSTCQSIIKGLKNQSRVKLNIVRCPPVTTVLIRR

[22] = target: T12, LNX2_2, Q8N448
T12 sequence (Q8N448 334-432, limits assumed, looked up): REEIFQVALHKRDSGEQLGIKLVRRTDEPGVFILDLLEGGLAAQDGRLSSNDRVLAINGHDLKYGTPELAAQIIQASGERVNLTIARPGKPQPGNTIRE

[23] = target: MAGI1_1, Q96QZ7
[24] = target: DLG4_1, P78352
[25] = target: TJP1_3, Q07157
[26] = plain residues with an end cap or a label only (N-terminal biotin on a linker: ado-ado)
[27] = modified: phospho on T at position -1 from the C-terminal residue

DLG4_1, P78352, sequence (P78352 62-152): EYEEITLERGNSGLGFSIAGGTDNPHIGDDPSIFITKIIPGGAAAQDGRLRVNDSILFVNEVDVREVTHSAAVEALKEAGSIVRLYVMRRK
GRID2IP_1, A4D2P6, sequence (A4D2P6 1-87): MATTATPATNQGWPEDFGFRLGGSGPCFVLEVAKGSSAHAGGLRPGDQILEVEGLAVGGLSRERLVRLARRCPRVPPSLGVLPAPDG
NHERF4_1, Q86UT5-2, sequence (Q86UT5 other isoform, or with tags, fused parts or gaps): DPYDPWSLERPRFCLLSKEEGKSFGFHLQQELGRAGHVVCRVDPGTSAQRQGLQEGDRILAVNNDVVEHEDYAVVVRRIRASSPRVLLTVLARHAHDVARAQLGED
Inadl_9, Q8NI35, sequence (Q8NI35 1530-1615): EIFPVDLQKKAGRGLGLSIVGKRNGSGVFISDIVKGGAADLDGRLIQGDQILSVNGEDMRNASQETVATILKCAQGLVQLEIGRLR
Inadl_2, Q8NI35, sequence (Q8NI35 238-335): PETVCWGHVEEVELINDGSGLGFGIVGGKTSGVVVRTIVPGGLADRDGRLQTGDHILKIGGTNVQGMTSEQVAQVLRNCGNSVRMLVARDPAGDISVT
GRASP, Q7Z6J2, sequence (Q7Z6J2 96-193): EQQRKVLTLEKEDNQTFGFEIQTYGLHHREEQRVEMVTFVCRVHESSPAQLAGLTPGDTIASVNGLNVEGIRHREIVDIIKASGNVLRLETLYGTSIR
TJP2_1, Q9UDY2, sequence (Q9UDY2 24-128): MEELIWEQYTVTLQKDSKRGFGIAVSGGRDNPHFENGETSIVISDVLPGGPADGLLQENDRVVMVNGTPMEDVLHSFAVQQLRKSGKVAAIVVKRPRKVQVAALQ
NHERF4_4, Q86UT5, sequence (Q86UT5 464-550): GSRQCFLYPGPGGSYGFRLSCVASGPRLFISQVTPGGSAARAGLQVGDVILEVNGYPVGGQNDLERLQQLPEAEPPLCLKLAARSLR
MAGI1_1, Q96QZ7, sequence (Q96QZ7 1-106): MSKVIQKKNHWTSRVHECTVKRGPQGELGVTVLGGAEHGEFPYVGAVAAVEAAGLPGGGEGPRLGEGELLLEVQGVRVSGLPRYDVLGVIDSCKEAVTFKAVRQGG
NOS1, P29475, sequence (P29475 9-101): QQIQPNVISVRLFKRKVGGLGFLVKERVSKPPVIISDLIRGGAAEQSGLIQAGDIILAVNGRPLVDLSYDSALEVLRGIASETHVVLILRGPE
PICK1, Q9NRD5, sequence (Q9NRD5 17-115): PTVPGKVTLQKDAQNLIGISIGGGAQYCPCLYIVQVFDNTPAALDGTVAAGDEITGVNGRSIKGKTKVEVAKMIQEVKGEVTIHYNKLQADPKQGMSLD
TJP1_3, Q07157, sequence (Q07157 416-512): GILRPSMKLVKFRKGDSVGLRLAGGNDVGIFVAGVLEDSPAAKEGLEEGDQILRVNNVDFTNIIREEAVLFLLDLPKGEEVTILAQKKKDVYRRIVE
NHERF2_2, Q15599, sequence (Q15599 142-238): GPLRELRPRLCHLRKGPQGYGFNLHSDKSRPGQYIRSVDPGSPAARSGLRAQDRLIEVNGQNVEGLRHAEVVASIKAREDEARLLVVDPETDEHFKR

B1: MARCHF4, Q9P2E8 (peptide)
chain: RELVMRVTTV
pKd [1, 26]: 4.74
pKd [2, 26]: 3.59
pKd [3, 26]: 4.63
pKd [4, 26]: below the threshold
pKd [5, 26]: 3.71
pKd [6, 26]: below the threshold
pKd [7, 26]: 3.82
pKd [8, 26]: 4.63
pKd [9, 26]: below the threshold
pKd [10, 26]: below the threshold
pKd [11, 26]: below the threshold
pKd [12, 26]: below the threshold
pKd [13, 26]: below the threshold
pKd [14, 26]: below the threshold
pKd [15, 26]: 3.86
pKd [16, 26]: 5.11
pKd [17, 26]: below the threshold
pKd [18, 26]: 3.65
pKd [19, 26]: 3.7
pKd [20, 26]: below the threshold
pKd [21, 26]: below the threshold
pKd [22, 26]: 5.27
pKd [23, 26]: below the threshold
pKd [24, 26]: 5.03
pKd [25, 26]: below the threshold

B2: SH2D3C, Q8N5H7 (peptide)
chain: LEPAVRSSEL
pKd [1, 26]: 3.85
pKd [2, 26]: below the threshold
pKd [3, 26]: 4.43
pKd [4, 26]: below the threshold
pKd [5, 26]: below the threshold
pKd [6, 26]: below the threshold
pKd [7, 26]: below the threshold
pKd [8, 26]: below the threshold
pKd [9, 26]: below the threshold
pKd [10, 26]: 4.18
pKd [11, 26]: below the threshold
pKd [12, 26]: 4.29
pKd [13, 26]: below the threshold
pKd [14, 26]: 3.6
pKd [15, 26]: below the threshold
pKd [16, 26]: 4.11
pKd [17, 26]: 3.72
pKd [18, 26]: below the threshold
pKd [19, 26]: below the threshold
pKd [20, 26]: below the threshold
pKd [21, 26]: below the threshold
pKd [22, 26]: below the threshold
pKd [23, 26]: below the threshold
pKd [24, 26]: below the threshold
pKd [25, 26]: below the threshold

B3: RPS6KA1_-1P, Q15418 (peptide)
chain: RRVRKLPSTTL
pKd [1, 27]: 3.48
pKd [2, 27]: below the threshold
pKd [3, 27]: 3.8
pKd [4, 27]: 3.48
pKd [5, 27]: below the threshold
pKd [6, 27]: below the threshold
pKd [7, 27]: below the threshold
pKd [8, 27]: 3.63
pKd [9, 27]: 3.45
pKd [10, 27]: 4.23
pKd [11, 27]: 3.38
pKd [12, 27]: 4.02
pKd [13, 27]: 3.49
pKd [14, 27]: below the threshold
pKd [15, 27]: below the threshold
pKd [16, 27]: 3.91
pKd [17, 27]: below the threshold
pKd [18, 27]: below the threshold
pKd [19, 27]: below the threshold
pKd [20, 27]: below the threshold
pKd [21, 27]: 3.56
pKd [22, 27]: below the threshold
pKd [23, 27]: 3.33
pKd [24, 27]: 3.8
pKd [25, 27]: below the threshold
